Entries after “also recorded” stand apart in the source; their conditions may differ. Read-outs that look alike come from different tables or passages of the source.
Legend:
[1] = test system: Sprague Dawley rats; experiment: 13 week dermal toxicity study in rats with 4 week recovery
Protocol: The purpose of this study was to evaluate the toxicity of the test item in rats after daily dermal administration (6 hours exposure) over a period of 13 weeks and to investigate possible recovery from any potential treatment-related effects over a period of 4 consecutive weeks.
Three groups, each of 10 male and 10 female Sprague Dawley rats (cf. Table 1: male numbered with even numbers, female numbered with uneven numbers) received the test item by dermal application at dosages of 0.5, 2.5 and 5 mg/kg/day for 13 consecutive weeks (Table 1: group numbers 2-4). A fourth similarly constituted group received the vehicle alone (purified water) and acted as a control (Table 1: group number 1). Five additional animals for each sex were included in the high and control groups (Table 1: group numbers 4 and 1, respectively) for recovery assessment.
The treatment sites were examined each day, approximately 3 hours after the start of dosing. Irritation of the sites, when compared to the adjacent untreated skin, was assigned a numerical value according to the table below:

[2] = test system: Escherichia coli WP2; experiment: Photomutagenicity assay in bacteria (reverse mutation, UV light); format: cell-based; conditions: up to 5000 μg/plate
Description: (§1) The test item was examined for photomutagenic activity by assaying for reverse mutation to prototrophy in the prokaryotic organisms, Salmonella typhimurium and Escherichia coli, after exposure to light.
(§2) The three S. typhimurium tester strains, TA1537, TA98 and TA100, and the E. coli tester strain, WP2, were used. The bacteria, co-plated with the test item in soft-agar, were irradiated with various doses of UV light.
(§3) The procedures adopted were developed by Ames et al., 1975 and revised by Maron and Ames, 1983.
(§4) The test item was used as a solution in sterile distilled water.
(§5) The test item was assayed in the toxicity test at a maximum dose level of 5000 μg/plate and at four lower concentrations spaced at approximately half-log intervals: 1580, 500, 158 and 50.0 μg/plate. Two widely-spaced UV doses were selected for each bacterial tester strain on the basis of the maximum tolerated dose.
(§6) Two independent experiments were performed using the plate incorporation method.
(§7) The test item was assayed at a maximum dose level of 5000 μg/plate and at four lower dose levels spaced by two-fold dilutions: 2500, 1250, 625 and 313 μg/plate. The prepared plates were exposed to the following UVA and UVB doses (Table 5): […]

[3] = test system: Salmonella typhimurium TA1537, TA98 and TA100; experiment: as above; format: cell-based; conditions: up to 5000 μg/plate
Description: as §1, §2, §3, §4, §5, §6, §7

[4] = biological target: TrkA (Homo sapiens, UniProt P04629); experiment: Off-chip Mobility Shift Assay, IC50 against TrkA kinase; format: biochemical; conditions: ATP 75 μM, CSKtide 1000 nM
TrkA, sequence (P04629 33-796): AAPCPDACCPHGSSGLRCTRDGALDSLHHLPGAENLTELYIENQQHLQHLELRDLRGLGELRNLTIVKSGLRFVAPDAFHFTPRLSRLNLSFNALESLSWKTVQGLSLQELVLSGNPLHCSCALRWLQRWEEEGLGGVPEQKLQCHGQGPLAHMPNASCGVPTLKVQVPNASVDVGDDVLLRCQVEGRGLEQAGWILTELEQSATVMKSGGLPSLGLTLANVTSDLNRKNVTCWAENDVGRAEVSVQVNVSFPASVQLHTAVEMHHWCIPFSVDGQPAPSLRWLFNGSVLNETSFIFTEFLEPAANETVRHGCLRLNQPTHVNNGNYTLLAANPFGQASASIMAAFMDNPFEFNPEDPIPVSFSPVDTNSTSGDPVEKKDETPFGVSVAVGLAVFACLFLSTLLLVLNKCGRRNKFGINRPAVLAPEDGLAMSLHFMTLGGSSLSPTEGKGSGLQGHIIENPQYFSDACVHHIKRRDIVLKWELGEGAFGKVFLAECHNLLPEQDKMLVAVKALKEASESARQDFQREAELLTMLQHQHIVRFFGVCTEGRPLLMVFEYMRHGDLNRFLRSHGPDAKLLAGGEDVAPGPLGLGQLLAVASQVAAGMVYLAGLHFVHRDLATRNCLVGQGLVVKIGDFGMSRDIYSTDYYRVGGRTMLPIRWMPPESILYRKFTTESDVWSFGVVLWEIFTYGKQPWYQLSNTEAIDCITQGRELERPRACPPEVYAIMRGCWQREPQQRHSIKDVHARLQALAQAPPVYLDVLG
Protocol: The test compound was dissolved in dimethylsulfoxide (DMSO) and then the solution was further 25-fold diluted with assay buffer to make the final test compound solution. The conjugate was tested at the following concentrations: 30000 nM, 10000 nM, 3000 nM, 1000 nM, 300 nM, 100 nM, 30 nM, 10 nM, 3 nM and 1 nM.
The assay procedure is represented by an Off-chip Mobility Shift Assay (MSA) and is reported below:
IC50 value was calculated from concentration vs. % inhibition curves by fitting to a four parameter logistic curve.

[5] = test system: mouse lymphoma L5178Y cells; experiment: Preliminary cytotoxicity assay in L5178Y cells; format: cell-based
Protocol: A preliminary cytotoxicity assay was performed. Based on the solubility results, the test item was assayed at a maximum dose level of 5000 μg/ml both in the absence and presence of S9 metabolism. A wide range of lower dose levels were included in the treatment series: 2500, 1250, 625, 313, 156, 78.1, 39.1 and 19.5 μg/ml.

[6] = test system: New Zealand White Specific Pathogen Free (SPF) rabbits; conditions: rabbit, in vivo
Protocol: Three groups, each of 6 male and 6 female New Zealand White Specific Pathogen Free (SPF) rabbits (cf. Table 3: male numbered with even numbers, female numbered with uneven numbers), received the test item by dermal application at dosages of 0.5, 2.5 and 5 mg/animal/day for 13 consecutive weeks (Table 3, group numbers 2-4, respectively). A fourth similarly constituted group received the vehicle alone (purified water) and acted as a control (Table 3, group number 1). Control and high dose groups (Table 3, group numbers 4 and 1, respectively). included 3 additional animals per sex for recovery assessment.
The following investigations were performed: daily clinical signs, body weight, food consumption, macroscopic observations of the treatment sites, clinical pathology investigations, terminal body weight, organ weight, post mortem macroscopic observations and histopathological examination.
The treatment sites were examined, each day, approximately 3 hours after the start of dosing. Irritation of the sites, when compared to the adjacent untreated skin, was assigned a numerical value according to the table below:

[7] = test system: Balb/c 3T3 cells; format: cell-based; conditions: for IC50 (neutral red uptake): up to 1000 μg/ml
Protocol: The potential in vitro phototoxicity of the test item was evaluated by the measurements of neutral red uptake for cellular toxicity on cultures of Balb/c 3T3 cells treated with different doses of the test item and exposed to UVA irradiation. Test item solutions were prepared using Earle's Balanced Salt Solution (EBSS).
A preliminary dose-range finding experiment in the presence (+UVA) and in the absence (−UVA) of light was undertaken in order to select appropriate dose levels for the main assays. The test item was assayed at a maximum dose level of 1000 μg/ml (the upper limit indicated in the study protocol) and at a wide range of lower dose levels: 500, 250, 125, 62.5, 31.3, 15.6 and 7.81 μg/ml. […] In this case the chemical is considered to be non-phototoxic. The same dose range was used for the main assay.
A main experiment was performed using the following dose levels: 1000, 500, 250, 125, 62.5, 31.3, 15.6 and 7.81 μg/ml.

[8] = Toxicokinetics (plasma levels) in 13 week dermal rat study
Protocol: (§8) The purpose of this study was to evaluate the toxicity of the test item in rats after daily dermal administration (6 hours exposure) over a period of 13 weeks and to investigate possible recovery from any potential treatment-related effects over a period of 4 consecutive weeks. The toxicokinetic profile was also evaluated.
(§9) Three groups, each of 10 male and 10 female Sprague Dawley rats (cf. Table 1: male numbered with even numbers, female numbered with uneven numbers) received the test item by dermal application at dosages of 0.5, 2.5 and 5 mg/kg/day for 13 consecutive weeks (Table 1: group numbers 2-4). A fourth similarly constituted group received the vehicle alone (purified water) and acted as a control (Table 1: group number 1). Five additional animals for each sex were included in the high and control groups (Table 1: group numbers 4 and 1, respectively) for recovery assessment. In addition, 3 satellite groups for toxicokinetics, including 9 males and 9 females (Table 2: group numbers 5-8, respectively), and 1 control group, including 3 males and 3 females (Table 2: group number 5), were treated as the main groups for toxicokinetic evaluations.

[9] = Solubility in RPMI 1640 complete medium; format: physicochemical
[10] = rat, in vivo
Protocol: as §8, §9

[11] = Toxicokinetics (plasma levels) in 13 week dermal rabbit study; format: in vivo
Description: Blood samples were taken from each animal on Day 1 and Week 13 for toxicokinetic evaluations.

[12] = test system: Sprague Dawley rats; experiment: Acute intravenous toxicity study in rats; format: in vivo, rat
Protocol: The acute toxicity of the conjugate of Example 3 was investigated after intravenous administration (10 ml/kg in physiological saline) of a single dose to Sprague Dawley rats followed by a 14-day observation period.
A single group of 5 male and 5 female animals was dosed at 2000 mg/kg. Animals were dosed with the formulated test item at the selected level, just after its preparation, by injection into the tail vein using a hypodermic needle attached to a syringe of suitable capacity, at a dose volume of 10 ml/kg body weight. Throughout the study, all animals were checked twice daily.
Animals were examined for signs of reaction to treatment on dosing, approximately 30 min, 2 and 4 hours after dosing on day 1, then daily for a total of 14 days. Each animal was weighed on the day of allocation to study, on the day of dosing (day 1) and on days 2, 8 and 15. All animals were killed at the end of the observation period and subjected to necropsy examination.

[13] = 0.5, 2.5 and 5 mg/kg/day dermal, 13 weeks
[14] = daily dermal administration over 13 weeks

oxazolidindionic conjugate of K252a with PEG (1892 MW) [test item]
adverse effects ([1]; 0.5, 2.5 and 5 mg/kg/day): No adverse effects were seen at any of the dose levels | body weight [1, 13]: No relevant differences in body weight were recorded | clinical signs [1, 13]: no treatment-related clinical signs were observed | food consumption [1, 13]: comparable to controls | mortality [1, 13]: No treatment-related mortality occurred | absolute and relative organ weights ([1]; 13 weeks dermal): No changes in absolute and relative organ weights of toxicological significance were observed | clinical chemistry and urinalysis ([1]; 13 weeks dermal): No changes of toxicological significance were observed | macroscopic and microscopic observations ([1]; 13 weeks dermal): No treatment-related changes were noted | terminal body weight ([1]; 13 weeks dermal): comparable between control and treated groups | No Observed Adverse Effect Level (NOAEL) ([1]; daily dermal administration to rats, 13 weeks): 5 mg/kg/day | ophthalmic examination ([1]; end of the treatment period): No treatment-related lesions were detected | irritation index at treated sites ([1]; erythema/oedema score 0-4, daily dermal, 13 weeks): 0 | haematology ([1]; partial reversibility at end of recovery period): leucopenia observed in animals of high dose group and in females of medium dose group | reverse mutation (revertant colonies) in the presence of UV light ([2]; UVA and UVB): did not induce two-fold increases in the number of revertant colonies; also recorded: does not induce reverse mutation | toxicity ([2]; any UV irradiation dose): No relevant toxicity was observed | reverse mutation (revertant colonies) in the presence of UV light ([3]; UVA): did not induce two-fold increases in the number of revertant colonies; also recorded: does not induce reverse mutation | toxicity ([3]; any UV irradiation dose): No relevant toxicity was observed | IC50 [4]: 202 nM | relative survival ([5]; absence of S9, long treatment time, two higher concentrations, % of concurrent negative control): approximately 60% | relative survival ([5]; absence of S9, short treatment time, several concentrations, no dose relationship): slight reduction of relative survival | toxicity ([5]; presence of S9, up to 5000 μg/ml): no relevant toxicity was observed | macroscopic and microscopic observations [6]: no treatment-related changes were noted | Photo Irritation Factor (PIF) [7]: could not be calculated | mean photo effect (MPE) [7]: 0.089 | phototoxicity classification [7]: non phototoxic | IC50 (neutral red uptake) ([7]; main experiment, both curves (+UV and -UV)): no IC50 value | IC50 (neutral red uptake) ([7]; preliminary dose-range finding, +UVA and -UVA): no IC50 value was calculable | accumulation [8, 14]: no accumulation has occurred | absorption through the dermal route ([8]; rat plasma sample analyses): only minimally absorbed | solubility [9]: ≥ 50.0 mg/mL | plasma levels / incidence of absorption [10]: a lower incidence of absorption was detected | accumulation [11, 14]: no accumulation occurred | absorption through the dermal route ([11]; rabbit plasma sample analyses): only minimally absorbed | absorption ([11]; week 13, dermal): Very low absorption | internal abnormalities at necropsy ([12]; 2000 mg/kg i.v.): No internal abnormalities were detected | clinical signs ([12]; 2000 mg/kg i.v., all animals on the day of dosing): reduced activity and piloerection | changes in body weight ([12]; 2000 mg/kg i.v., end of study): within the expected range | abnormalities at the injection site ([12]; 2000 mg/kg i.v., tail vein): No abnormalities were observed at the injection site | mortality ([12]; 2000 mg/kg single intravenous dose, 14-day observation): No mortality occurred | local tolerance ([12]; injected into the tail vein at 2000 mg/kg): locally tolerated | toxic effect ([12]; single intravenous administration at 2000 mg/kg body weight): no toxic effect
